The results in this text go back to patent publication US20140072613A1 (published 2014).

Experiment in all cases: cell-based or functional assay
For assay [1], the target named is Abl(Y253F)(h) (human, UniProt P00519 27-1130, limits assumed).
In assay [2] the target is PKCθ(h) (human, UniProt Q04759 1-706).
Assay [3] concerns the target T1, NEK11(h) (human, UniProt Q8NG66 1-645, limits assumed).
T1 sequence (looked up): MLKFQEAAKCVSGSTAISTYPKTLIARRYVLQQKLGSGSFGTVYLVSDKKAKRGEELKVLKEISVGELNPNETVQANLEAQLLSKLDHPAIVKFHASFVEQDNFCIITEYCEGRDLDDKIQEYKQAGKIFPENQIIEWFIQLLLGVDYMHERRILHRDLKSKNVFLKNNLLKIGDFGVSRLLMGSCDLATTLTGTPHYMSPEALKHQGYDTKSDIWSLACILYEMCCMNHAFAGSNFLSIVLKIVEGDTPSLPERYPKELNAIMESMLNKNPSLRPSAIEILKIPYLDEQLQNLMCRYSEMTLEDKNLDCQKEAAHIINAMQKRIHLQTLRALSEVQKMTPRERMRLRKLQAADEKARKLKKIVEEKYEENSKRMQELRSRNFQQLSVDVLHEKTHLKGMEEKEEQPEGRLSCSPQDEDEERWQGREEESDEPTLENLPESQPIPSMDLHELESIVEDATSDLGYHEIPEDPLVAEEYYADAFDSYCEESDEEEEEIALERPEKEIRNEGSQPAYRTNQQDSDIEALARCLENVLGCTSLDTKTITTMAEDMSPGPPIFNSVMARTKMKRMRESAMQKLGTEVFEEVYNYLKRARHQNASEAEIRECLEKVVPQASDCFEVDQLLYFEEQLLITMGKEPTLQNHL

Assay [4] concerns the target T2, PrKX(h) (human, UniProt P51817 1-358).
T2 sequence (looked up): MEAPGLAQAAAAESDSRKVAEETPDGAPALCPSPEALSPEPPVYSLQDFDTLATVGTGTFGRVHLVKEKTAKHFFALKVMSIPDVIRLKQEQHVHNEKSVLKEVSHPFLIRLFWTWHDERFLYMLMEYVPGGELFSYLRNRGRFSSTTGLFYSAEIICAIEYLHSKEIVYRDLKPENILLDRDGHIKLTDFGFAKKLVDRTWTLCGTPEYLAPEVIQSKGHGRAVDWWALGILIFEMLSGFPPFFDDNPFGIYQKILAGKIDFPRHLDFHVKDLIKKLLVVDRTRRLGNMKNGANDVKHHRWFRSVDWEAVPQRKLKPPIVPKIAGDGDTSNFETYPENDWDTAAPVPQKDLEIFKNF

For assay [5], the target named is T3, Txk(h) (human, UniProt P42681 1-527, limits assumed).
T3 sequence (looked up): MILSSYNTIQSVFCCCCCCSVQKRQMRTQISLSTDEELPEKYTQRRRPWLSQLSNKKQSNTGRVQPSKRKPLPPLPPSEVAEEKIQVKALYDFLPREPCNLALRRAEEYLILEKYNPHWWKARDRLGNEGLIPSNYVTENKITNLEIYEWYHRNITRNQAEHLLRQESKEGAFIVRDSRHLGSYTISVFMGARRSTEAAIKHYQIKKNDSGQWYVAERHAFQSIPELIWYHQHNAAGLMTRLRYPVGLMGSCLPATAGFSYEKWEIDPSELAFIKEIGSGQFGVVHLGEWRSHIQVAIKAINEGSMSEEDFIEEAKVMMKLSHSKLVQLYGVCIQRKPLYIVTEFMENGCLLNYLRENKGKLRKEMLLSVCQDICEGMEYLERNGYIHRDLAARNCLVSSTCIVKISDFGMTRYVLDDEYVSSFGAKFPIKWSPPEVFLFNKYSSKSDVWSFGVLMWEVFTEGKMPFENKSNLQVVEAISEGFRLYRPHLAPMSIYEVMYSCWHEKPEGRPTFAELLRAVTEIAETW

Assay [6] concerns the target T4, TAO1(h) (human, UniProt Q7L7X3 1-314, limits assumed).
T4 sequence (looked up): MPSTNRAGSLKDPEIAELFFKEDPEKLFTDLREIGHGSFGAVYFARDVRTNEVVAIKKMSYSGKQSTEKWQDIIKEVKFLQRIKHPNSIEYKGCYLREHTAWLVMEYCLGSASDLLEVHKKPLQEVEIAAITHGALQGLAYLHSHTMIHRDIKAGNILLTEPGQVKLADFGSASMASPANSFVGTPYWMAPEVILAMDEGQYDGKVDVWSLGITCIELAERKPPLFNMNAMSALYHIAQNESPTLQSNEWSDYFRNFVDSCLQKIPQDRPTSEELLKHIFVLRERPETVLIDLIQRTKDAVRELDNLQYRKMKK

In assay [7] the target is T5, PKG1β(h) (human, UniProt Q13976-2 1-686).
T5 sequence (looked up): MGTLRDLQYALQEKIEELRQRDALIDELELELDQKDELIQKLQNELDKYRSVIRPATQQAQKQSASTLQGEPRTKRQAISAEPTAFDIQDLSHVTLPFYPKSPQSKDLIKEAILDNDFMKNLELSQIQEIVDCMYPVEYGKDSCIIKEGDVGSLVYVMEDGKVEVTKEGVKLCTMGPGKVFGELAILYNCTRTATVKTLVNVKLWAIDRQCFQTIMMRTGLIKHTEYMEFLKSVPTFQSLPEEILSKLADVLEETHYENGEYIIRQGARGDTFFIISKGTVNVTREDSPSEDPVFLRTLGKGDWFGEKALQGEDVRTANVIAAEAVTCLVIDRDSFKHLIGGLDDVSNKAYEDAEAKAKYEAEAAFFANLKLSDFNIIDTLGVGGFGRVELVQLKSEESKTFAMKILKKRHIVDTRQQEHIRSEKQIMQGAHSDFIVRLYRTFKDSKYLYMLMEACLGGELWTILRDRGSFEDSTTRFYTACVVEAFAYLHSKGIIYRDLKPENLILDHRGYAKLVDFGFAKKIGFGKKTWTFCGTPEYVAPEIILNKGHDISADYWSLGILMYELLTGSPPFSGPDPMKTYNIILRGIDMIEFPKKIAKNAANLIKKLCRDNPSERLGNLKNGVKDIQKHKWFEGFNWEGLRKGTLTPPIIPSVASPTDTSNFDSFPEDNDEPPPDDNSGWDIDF

Abl(Y253F)(h), sequence (P00519 27-1130 Y253F limits assumed): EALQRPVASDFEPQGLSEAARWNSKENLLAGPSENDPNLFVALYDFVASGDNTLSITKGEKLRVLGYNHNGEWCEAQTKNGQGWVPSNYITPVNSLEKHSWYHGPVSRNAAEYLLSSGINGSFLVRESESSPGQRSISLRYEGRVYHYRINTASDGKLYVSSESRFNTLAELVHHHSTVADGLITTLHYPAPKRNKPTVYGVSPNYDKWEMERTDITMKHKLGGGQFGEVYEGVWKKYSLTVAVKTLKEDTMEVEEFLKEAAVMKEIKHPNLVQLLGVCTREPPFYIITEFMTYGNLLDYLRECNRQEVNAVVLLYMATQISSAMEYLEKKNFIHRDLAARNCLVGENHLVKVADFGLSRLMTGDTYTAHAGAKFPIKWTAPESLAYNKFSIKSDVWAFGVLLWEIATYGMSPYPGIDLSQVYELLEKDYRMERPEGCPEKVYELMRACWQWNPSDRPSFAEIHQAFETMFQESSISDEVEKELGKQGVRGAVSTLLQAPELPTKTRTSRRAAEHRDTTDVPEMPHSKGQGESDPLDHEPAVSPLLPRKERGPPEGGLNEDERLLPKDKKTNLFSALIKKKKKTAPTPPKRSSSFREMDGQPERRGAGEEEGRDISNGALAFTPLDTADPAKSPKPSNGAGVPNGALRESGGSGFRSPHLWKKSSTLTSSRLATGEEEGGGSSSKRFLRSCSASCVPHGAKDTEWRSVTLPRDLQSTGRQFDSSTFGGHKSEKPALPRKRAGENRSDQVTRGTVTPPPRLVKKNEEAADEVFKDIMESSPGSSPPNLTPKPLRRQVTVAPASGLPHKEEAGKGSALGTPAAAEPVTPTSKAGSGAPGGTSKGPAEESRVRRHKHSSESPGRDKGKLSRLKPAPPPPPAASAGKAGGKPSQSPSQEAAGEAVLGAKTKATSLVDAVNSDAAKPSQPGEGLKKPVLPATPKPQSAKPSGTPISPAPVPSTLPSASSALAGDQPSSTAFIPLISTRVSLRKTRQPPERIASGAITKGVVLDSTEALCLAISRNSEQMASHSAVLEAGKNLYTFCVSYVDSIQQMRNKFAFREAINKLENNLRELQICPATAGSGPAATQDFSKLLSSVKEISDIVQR
PKCθ(h), sequence (Q04759 whole entry): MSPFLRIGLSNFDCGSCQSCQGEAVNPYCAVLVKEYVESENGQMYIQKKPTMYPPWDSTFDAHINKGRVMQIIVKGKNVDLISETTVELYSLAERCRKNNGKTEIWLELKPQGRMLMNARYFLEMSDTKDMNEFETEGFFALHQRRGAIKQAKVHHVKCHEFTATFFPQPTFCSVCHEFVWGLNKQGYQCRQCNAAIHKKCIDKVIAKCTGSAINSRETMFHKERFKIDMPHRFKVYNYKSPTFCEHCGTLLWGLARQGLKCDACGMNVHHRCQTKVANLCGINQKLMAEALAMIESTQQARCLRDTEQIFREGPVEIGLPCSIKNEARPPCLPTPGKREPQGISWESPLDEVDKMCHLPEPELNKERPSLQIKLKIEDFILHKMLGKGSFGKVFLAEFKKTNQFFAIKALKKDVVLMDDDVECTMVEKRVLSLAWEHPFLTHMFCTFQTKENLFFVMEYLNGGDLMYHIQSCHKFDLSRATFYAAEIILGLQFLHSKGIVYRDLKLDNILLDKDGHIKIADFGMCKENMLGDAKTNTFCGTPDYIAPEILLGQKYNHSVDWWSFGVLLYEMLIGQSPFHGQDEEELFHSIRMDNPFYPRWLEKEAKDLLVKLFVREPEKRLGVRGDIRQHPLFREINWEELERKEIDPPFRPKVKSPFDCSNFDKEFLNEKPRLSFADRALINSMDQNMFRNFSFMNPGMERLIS

B1: MMI-0400 (peptide)
peptide: KAFAKLAARLYRKALARQLGVAA
Turning to B1, the “% activity, 100 µM” value in assay [1] was 78%; in assay [2] it was 76%; in assay [3], 33%; in assay [4], 76%; in assay [5] it was 37%; in assay [6] it was 73%. In assay [7], the “% activity, 100 µM” value was found to be 53%.

B2: MMI-0300 (peptide)
peptide: FAKLAARLYRKALARQLGVAA
As for B2, the “% activity, 100 µM” value stood at 86% in assay [1]; 88% in assay [2]; 53% in assay [3]; 61% in assay [4]; 48% in assay [5]; 82% in assay [6]. The “% activity, 100 µM” value in assay [7] turned out to be 50%.
